First the molecules themselves.
B1: Zinc-alpha-2-glycoprotein (protein)
chain: QENQDGRYSLTYIYTGLSKHVEDVPAFQALGSLNDLQFFRYNSKDRKSQPMGLWRQVEGMEDWKQDSQLQKAREDIFMETLKDIVEYYNDSNGSHVLQGRFGCEIENNRSSGAFWKYYYDGKDYIEFNKEIPAWVPFDPAAQITKQKWEAEPVYVQRAKAYLEEECPATLRKYLKYSKNILDRQDPPSVVVTSHQAPGEKKKLKCLAYDFYPGKIDVHWTRAGEVQEPELRGDVLHNGNGTYQSWVVVAVPPQDTAPYSCHVQHSSLAQPLVVPWEAS
B2: Alpha-1-acid glycoprotein 2 (protein)
chain: QIPLCANLVPVPITNATLDRITGKWFYIASAFRNEEYNKSVQEIQATFFYFTPNKTEDTIFLREYQTRQNQCFYNSSYLNVQRENGTVSRYEGGREHVAHLLFLRDTKTLMFGSYLDDEKNWGLSFYADKPETTKEQLGEFYEALDCLCIPRSDVMYTDWKKDKCEPLEKQHEKERKQEEGES
B3: Protein AMBP (protein)
chain: GPVPTPPDNIQVQENFNISRIYGKWYNLAIGSTCPWLKKIMDRMTVSTLVLGEGATEAEISMTSTRWRKGVCEETSGAYEKTDTDGKFLYHKSKWNITMESYVVHTNYDEYAIFLTKKFSRHHGPTITAKLYGRAPQLRETLLQDFRVVAQGVGIPEDSIFTMADRGECVPGEQEPEPILIPRVRRAVLPQEEEGSGGGQLVTEVTKKEDSCQLGYSAGPCMGMTSRYFYNGTSMACETFQYGGCMGNGNNFVTEKECLQTCRTVAACNLPIVRGPCRAFIQLWAFDAVKGKCVLFPYGGCQGNGNKFYSEKECREYCGVPGDGDEELLRFSN
B4: Alpha-2-antiplasmin (protein)
chain: NQEQVSPLTLLKLGNQEPGGQTALKSPPGVCSRDPTPEQTHRLARAMMAFTADLFSLVAQTSTCPNLILSPLSVALALSHLALGAQNHTLQRLQQVLHAGSGPCLPHLLSRLCQDLGPGAFRLAARMYLQKGFPIKEDFLEQSEQLFGAKPVSLTGKQEDDLANINQWVKEATEGKIQEFLSGLPEDTVLLLLNAIHFQGFWRNKFDPSLTQRDSFHLDEQFTVPVEMMQARTYPLRWFLLEQPEIQVAHFPFKNNMSFVVLVPTHFEWNVSQVLANLSWDTLHPPLVWERPTKVRLPKLYLKHQMDLVATLSQLGLQELFQAPDLRGISEQSLVVSGVQHQSTLELSEVGVEAAAATSIAMSRMSLSSFSVNRPFLFFIFEDTTGLPLFVGSVRNPNPSAPRELKEQQDSPGNKDFLQSLKGFPRGDKLFGPDLKLVPPMEEDYPQFGSPK

The target of one experiment is T1, Abeta-42 plaque particles (Homo sapiens, UniProt P05067).
T1 construct: Abeta 1-42
As to the kind of experiment: Mass spectroscopy proteomics, semi-quantitative binding affinity of serum proteins (plaqueproteome, Table 2). Conditions: higher number = stronger affinity. Here is the method:
Next to isolate serum derived Abeta-42 plaque particles, the plasma or serum samples obtained from AD subjects were first centrifuged at 5,000 rpm for 5 min and the supernatants were transferred to new centrifuge tubes. Next, the supernatants were diluted in PBS to make 50% of the serum and plasma samples and used for incubation with Abeta-42 plaque oligomers/aggregates. Each assay was performed in 1 mL reaction (800 μL of 50% plasma or serum) and 200 μL (30 μg) of the Abeta-42 aggregates and the mixtures were incubated at 37° C. for 1 hr. To the mixture Thioflavin S dye (120 μg) was added and the sample was incubated for additional 30 min at 37° C. After the incubation, the mixture was directly used for sample acquisition using flow cytometer (FACS ARIA II, BD Biosciences, San Jose, Calif.). After initial detection of Abeta-42 plaque particles in the acquisition blot, gates were drawn in fluorescent dot blot to separately sort and isolate fluorescently labeled Abeta-42 particles.
(§1) For preparing trypsin digested peptide sequences, the isolated plaque particles were centrifuged at 10000 rpm for 5 min and the pellet containing plaque particles was resuspended in 100 μl PBS buffer. Stock solutions of digestion buffer (Ammonium Biocarbonate 50 mM), reducing buffer (DDT 100 mM) and alkylation buffer (lodoaceamide 100 mM) were prepared and stored at −20° C. for up to two months. For trypsin digestion, 100 μl of each plaque particles (2000 of Abeta-42, cholesterol, Tau and alpha-synuclein) were precipitated using cold acetone −80° C. by adding 4X's the volume. The samples were placed on dry ice for 10 min with intermittent vortex. Next, the samples were centrifuged at 4° C. at 10000 G for 10 min. Top layer of acetone was carefully removed from the tube with care not to disturb the plaque particles pellet. The samples were speed-vac for 10 min to ensure all acetone has been boiled away. The plaque particles pellet were reconstituted with 15 μl 8M Urea 100 mM Ammonium bicarbonate stock and 20 μl protease max solution. The protease max solution (Promega, Madison, Wis.) was prepared from stock by adding 60 μl 50 mM Ammonium bicarbonate and used for 3 solution digests (20 μl each). […] The tubes were incubated at 55° C. for 30 minutes. The tubes were then removed and brought to the room temperature followed by addition of 3.2 μl of 1M acrylamide and incubated at room temperature for 30 minutes. To the sample, 63 μL of 50 mM Ammonium bicarbonate was added for a final volume of 98 μl and 2 μl of trypsin (10 μg, Trypsin/Lys C Mix). After mixing the solution with pipet the samples were incubated at 37° C. overnight. After the overnight digest, the tryptic digest were quenched and acidified by adding 10 μl of 50% formic acid/water stock dilution. The samples were centrifuged at 10000 G for 2 minutes and purified using stage tip and used for MS/Mass analysis.
(§2) All MS/MS samples were analyzed using Sequest (Thermo Fisher Scientific, San Jose, Calif., USA; version 1.0). Sequest was set up to search the SUMS_uniprot_Human database (35847 entries) assuming the digestion enzyme strict trypsin. Sequest was searched with a fragment ion mass tolerance of 1.00 Da and a parent ion tolerance of 20 PPM. Propionamide of cysteine was specified in Sequest as a fixed modification. Oxidation of methionine and phospho of serine, threonine and tyrosine were specified in Sequest as variable modifications.
Scaffold (version Scaffold_4.2.1, Proteome Software Inc., Portland, Oreg.) was used to validate MS/MS based peptide and protein identifications. […] Protein probabilities were assigned by the Protein Prophet algorithm (Nesvizhskii, Al et al 2003). […] Proteins sharing significant peptide evidence were grouped into clusters. Proteins were annotated with GO terms from NCBI (downloaded Jan. 17, 2014).
For B1, the “Semi-quantitative analysis of proteins binding to different plaque particles: Abeta-42” value was found to be 5.
Still for that read-out and setting: for B2 the value was 9; for B3, 5.
As to B4, the “Semi-quantitative analysis of proteins binding to different plaque particles: Abeta-42” value is on record as 0.

A further experiment concerns Low density cholesterol (Chl small) plaque particles. Described as above. Also noted: species or system human. Conditions: higher number = stronger affinity. The procedure: (§3) The goal was to isolate plaque particles synthesized in the bio-fluids in a relatively pure form to enable their subsequent use for identification of components that contribute to the plaque formation. In order to isolate cholesterol plaque particles, the plasma or serum samples obtained from atherosclerotic subjects were first centrifuged at 5,000 rpm for 5 min and the supernatants were transferred to new centrifuge tubes. Next, the supernatants were diluted in PBS to make 50% of the serum and used for incubation with cholesterol oligomers/aggregates. Each assay was performed in 1 mL reaction (800 μL of 50% plasma or serum) and 200 μL (30 μg) of the Cholesterol aggregates and the mixtures were incubated at 37° C. for 1 hr After the incubation, the mixture was directly used for sample acquisition using flow cytometer (FACS ARIA II, BD Biosciences, San Jose, Calif.). […] In order to isolate these fractions, three sets of gates were drawn in the acquisition blot to separately sort and isolate High density or high complex cholesterol particles, Low density or low complex cholesterol particles and both High and low density cholesterol particles together.
as §1, §2
(§4) Scaffold (version Scaffold_4.2.1, Proteome Software Inc., Portland, Oreg.) was used to validate MS/MS based peptide and protein identifications. […] Protein probabilities were assigned by the Protein Prophet algorithm (Nesvizhskii, Al et al 2003).
For B1, the “Semi-quantitative analysis of proteins binding to different plaque particles: Chl small” value was 5.
On the same count and under the same terms, for B2 the value was 7; for B3, 5.
Regarding B4, the “Semi-quantitative analysis of proteins binding to different plaque particles: Chl small” value was 3.

Another experiment deals with High Density cholesterol (Chl Large) plaque particles. Described as above. On the set-up: species or system human. Conditions: higher number = stronger affinity. Here is the method: as §3, §1, §2, §4
With B1, the “Semi-quantitative analysis of proteins binding to different plaque particles: Chl Large” value was determined as 4.
B2: the “Semi-quantitative analysis of proteins binding to different plaque particles: Chl Large” value is reported as 5.
Consider B3, for which the “Semi-quantitative analysis of proteins binding to different plaque particles: Chl Large” value turned out to be 5.
Consider B4, for which the “Semi-quantitative analysis of proteins binding to different plaque particles: Chl Large” value turned out to be 6.

The next experiment deals with T2, alpha-synuclein plaque particles (Homo sapiens, UniProt P37840).
T2 construct: 140 amino acids polypeptide
The experiment is described as above. Conditions: higher number = stronger affinity. The procedure:
To prepare oligomers/aggregates of human alpha-synuclein (140 amino acids polypeptide), 1 mg of the recombinant alpha-synuclein protein was suspended in 1 mL of PBS and the sample was incubated at 37° C. for 2 hrs. After incubation, all the samples were centrifuged for 5 min. at 5000 rpm to remove precipitate, if any, and the supernatant containing oligomers/aggregates were used in vitro plaque particles formation assay. For detecting alpha-synuclein plaque particles Thioflavin S (Ex/Em=430 nm/550 nm) amyloid binding fluorescent dye (10 μg) was used.
Similarly, to isolate alpha-synuclein plaque particles, diluted plasma or serum samples obtained from AD subjects were used for incubation with alpha-synuclein plaque oligomers/aggregates. Each assay was performed in 1 mL reaction (800 μL of 50% plasma or serum) and 200 μL (30 μg) of the alpha-synuclein aggregates and the mixtures were incubated at 37° C. for 1 hr. To the mixture Thioflavin S dye (120 μg) was added and the sample was incubated for additional 30 min at 37° C. After the incubation, the mixture was directly used for sample acquisition using flow cytometer (FACS ARIA II, BD Biosciences, San Jose, Calif.). After initial detection of alpha-synuclein plaque particles, gates were drawn in the acquisition blot to separately sort and isolate fluorescently labeled alpha-synuclein particles.
as §1, §2
Scaffold (version Scaffold_4.2.1, Proteome Software Inc., Portland, Oreg.) was used to validate MS/MS based peptide and protein identifications.
Turning to B1, the “Semi-quantitative analysis of proteins binding to different plaque particles: Synuclein” value was determined as 7.
As to B2, the “Semi-quantitative analysis of proteins binding to different plaque particles: Synuclein” value came to 10.
For B3, the “Semi-quantitative analysis of proteins binding to different plaque particles: Synuclein” value amounted to 5.
In the case of B4, the “Semi-quantitative analysis of proteins binding to different plaque particles: Synuclein” value was determined as 5.

Another experiment concerns Tau plaque particles. The experiment is described as above. Also noted: species or system human. Conditions: higher number = stronger affinity. Here is the method:
For Tau-74 (74-102) (Exon 3/Insert 2 domain) preparation, 1 mg of Tau-74 was suspended in 1 mL of PBS and the sample was incubated at 37° C. for 2 hrs. Similarly for preparing Tau-275 (275-305) (Repeat 2 domain) 1 mg of the peptide was suspended in 1 mL of PBS and the sample was incubated at 37° C. for 2 hrs. After incubation, all the samples were centrifuged for 5 min. at 5000 rpm to remove precipitate, if any, and the supernatant containing oligomers/aggregates were used for in vitro amyloid plaque particles formation assay. For detecting Tau plaque particles, Thioflavin S (Ex/Em=430 nm/550 nm) amyloid binding fluorescent dye (10 μg) was used in the assay.
Next, to isolate Tau plaque particles, as performed for Abeta-42 and Abeta-28 plaque particles isolation, diluted serum samples were used for incubation separately with Tau-45, Tau-74 and Tau-275 oligomers/aggregates. Each assay was performed in 1 mL reaction (800 μL of 50% plasma or serum) and 200 μL (30 μg) of each Tau aggregates and the mixtures were incubated at 37° C. for 1 hr. To the each mixture Thioflavin S dye (120 μg) was added and the sample was incubated for additional 30 min at 37° C. After the incubation, each sample was directly used for sample acquisition using flow cytometer (FACS ARIA II, BD Biosciences, San Jose, Calif.). After initial detection of Tau plaque particles, gates were drawn in the acquisition blot to separately sort and isolate fluorescently labeled Tau plaque particles.
as §1, §2
As for B1, the “Semi-quantitative analysis of proteins binding to different plaque particles: Tau” value worked out at 4.
For B2, the “Semi-quantitative analysis of proteins binding to different plaque particles: Tau” value worked out at 9.
Consider B3, for which the “Semi-quantitative analysis of proteins binding to different plaque particles: Tau” value was determined as 10.
With B4, the “Semi-quantitative analysis of proteins binding to different plaque particles: Tau” value is recorded as 5.

The record behind these values is patent US9618524B2, “Method, composition, isolation and identification of a plaque particle and related biomarker” (Plaxgen Inc., priority 2012, dated 2017).
